Assays:
[1] = target: T1, recombinant human TL1A (human, UniProt O95150 71-251); experiment: competition ELISA, coated TL1A, competitor bio-TL1A-0002
T1 construct: Homotrimeric cytokine; biotinylated with Sulfo-NHS-biotin where captured for SPR, coated unlabelled in ELISA, soluble in bioassays; also called TNFSF15
T1 chain: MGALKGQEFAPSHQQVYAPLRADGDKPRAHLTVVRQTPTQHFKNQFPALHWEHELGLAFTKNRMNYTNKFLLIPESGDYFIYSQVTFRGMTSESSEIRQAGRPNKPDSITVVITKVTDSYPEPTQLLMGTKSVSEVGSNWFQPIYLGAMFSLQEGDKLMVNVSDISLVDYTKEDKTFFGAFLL
Procedure: For this competition ELISA assay procedure, 96-well high binding plates (Corning, product number 3590) were coated with 1 μg/mL recombinant TL1A in 100 μL/well in Phospate Buffered Saline (PBS) overnight at 4° C. Plates were then blocked in PBS+0.02% casein solution and washed with PBS+0.05% Tween-20 following standard ELISA protocol. […] Plates were washed with PBS+0.05% Tween-20 following standard ELISA protocol, and Streptavidin-HRP (Southern Biotech, product number 7100-05) diluted to 1:10,000 in assay buffer was added to plates and incubated for 25-30 minutes at room temperature. Next, the plates were washed with PBS+0.05% Tween-20 following standard ELISA protocol, and then TMB substrate (BioFX Laboratories, catalog number TMBW-0100-01) was added to plates. Reactions were stopped after approximately 5 minutes by adding 0.18 M ortho-phosphoric acid to each well and absorbance was read at 450 nm.

[2] = target: T1, recombinant human TL1A; experiment: cell-based or functional assay

Binder	Bioactivity relative to TL1A-0002 [1]	IC50 [1]	TF-1 NF-κB reporter cell bioassay IC50 [2]	TF-1 NF-κB reporter cell bioassay, Bioactivity relative to TL1A-0002 [2]	Whole blood IFNγ assay IC50 [2]	Whole blood IFNγ assay, Bioactivity relative to TL1A-0002 [2]
TL1A-0264 (antibody, human IgG1, kappa, V domains shown, human IgG1 effector-function-minimized/kappa) VH: QVQLVQSGAEVKKPGASVKVSCKASGYDYTYYGISWVRQAPGQGLEWMGWISTYNTVTHYAPSLQGRVTMTTDTSTSTAYMELRSLRSDDTAVYYCARESYYGSGAFRGGMDVWGQGTTVTVSS VL: DIQMTQSPSSLSASVGDRVTITCRASQSVSSYLAWYQQKPGKAPKLLIYDASNRATGVPSRFSGSGSGTDFTLTISSLQPEDFATYYCQQRSNWPWTFGQGTKVEIKR	3.1 fold	15.8 nM	30 nM	0.9 fold	1.06 nM	1.3 fold
TL1A-0293 (antibody, human IgG1, kappa, V domains shown, human IgG1 effector-function-minimized/kappa) VH: QVQLVQSGAEVKKPGASVKVSCKASGYDFTYYGVSWVRQAPGQGLEWMGWISTYNTVTHYAPSLQGRVTMTTDTSTSTAYMELRSLRSDDTAVYYCARESYYGSGAHRGGMDVWGQGTTVTVSS VL: DIQMTQSPSSLSASVGDRVTITCRASQSVSSYLAWYQQKPGKAPKLLIYDASNRATGVPSRFSGSGSGTDFTLTISSLQPEDFATYYCQQRSNWPWTFGQGTKVEIKR	1.9 fold	9.7 nM			0.986 nM	1.2 fold
TL1A-0275 (antibody, human IgG1, kappa, V domains shown, human IgG1 effector-function-minimized/kappa) VH: QVQLVQSGAEVKKPGASVKVSCKASGYDFSYYGISWVRQAPGQGLEWMGWISTYNTGTHYAPSLQGRVTMTTDTSTSTAYMELRSLRSDDTAVYYCARESYYGSGAHRGGMDVWGQGTTVTVSS VL: DIQMTQSPSSLSASVGDRVTITCRASQSVSSYLAWYQQKPGKAPKLLIYDASNRATGVPSRFSGSGSGTDFTLTISSLQPEDFATYYCQQRSNWPWTFGQGTKVEIKR	1.8 fold	9 nM	24.7 nM	0.7 fold		
TL1A-0278 (antibody, human IgG1, kappa, V domains shown, human IgG1 effector-function-minimized/kappa) VH: QVQLVQSGAEVKKPGASVKVSCKASGYDFSYYGISWVRQAPGQGLEWMGWISTYNTVTHYAPSLQGRVTMTTDTSTSTAYMELRSLRSDDTAVYYCARESYYGSGAFRGGMDVWGQGTTVTVSS VL: DIQMTQSPSSLSASVGDRVTITCRASQSVSSYLAWYQQKPGKAPKLLIYDASNRATGVPSRFSGSGSGTDFTLTISSLQPEDFATYYCQQRSNWPWTFGQGTKVEIKR	1.8 fold	9.1 nM			0.82 nM	1 fold
TL1A-0292 (antibody, human IgG1, kappa, V domains shown, human IgG1 effector-function-minimized/kappa) VH: QVQLVQSGAEVKKPGASVKVSCKASGYDFTYYGVSWVRQAPGQGLEWMGWISTYNTVTHYAPSLQGRVTMTTDTSTSTAYMELRSLRSDDTAVYYCARESYYGSGAFRGGMDVWGQGTTVTVSS VL: DIQMTQSPSSLSASVGDRVTITCRASQSVSSYLAWYQQKPGKAPKLLIYDASNRATGVPSRFSGSGSGTDFTLTISSLQPEDFATYYCQQRSNWPWTFGQGTKVEIKR	1.9 fold	9.6 nM	77.9 nM	2.2 fold	0.95 nM	1.1 fold
TL1A-0294 (antibody, human IgG1, kappa, V domains shown, human IgG1 effector-function-minimized/kappa) VH: QVQLVQSGAEVKKPGASVKVSCKASGYDFTYYGVSWVRQAPGQGLEWMGWISTYNTNTHYAPSLQGRVTMTTDTSTSTAYMELRSLRSDDTAVYYCARESYYGSGAFRGGMDVWGQGTTVTVSS VL: DIQMTQSPSSLSASVGDRVTITCRASQSVSSYLAWYQQKPGKAPKLLIYDASNRATGVPSRFSGSGSGTDFTLTISSLQPEDFATYYCQQRSNWPWTFGQGTKVEIKR	1.6 fold	8 nM	56.5 nM	1.6 fold	0.942 nM	1.1 fold
TL1A-0267 (antibody, human IgG1, kappa, V domains shown, human IgG1 effector-function-minimized/kappa) VH: QVQLVQSGAEVKKPGASVKVSCKASGYDYTYYGISWVRQAPGQGLEWMGWISTYNTNTHYAPSLQGRVTMTTDTSTSTAYMELRSLRSDDTAVYYCARESYYGSGAHRGGMDVWGQGTTVTVSS VL: DIQMTQSPSSLSASVGDRVTITCRASQSVSSYLAWYQQKPGKAPKLLIYDASNRATGVPSRFSGSGSGTDFTLTISSLQPEDFATYYCQQRSNWPWTFGQGTKVEIKR	1.3 fold	6.8 nM	42.2 nM	1.2 fold	0.94 nM	1.1 fold
TL1A-0274 (antibody, human IgG1, kappa, V domains shown, human IgG1 effector-function-minimized/kappa) VH: QVQLVQSGAEVKKPGASVKVSCKASGYDFSYYGISWVRQAPGQGLEWMGWISTYNTGTHYAPSLQGRVTMTTDTSTSTAYMELRSLRSDDTAVYYCARESYYGSGAFRGGMDVWGQGTTVTVSS VL: DIQMTQSPSSLSASVGDRVTITCRASQSVSSYLAWYQQKPGKAPKLLIYDASNRATGVPSRFSGSGSGTDFTLTISSLQPEDFATYYCQQRSNWPWTFGQGTKVEIKR	2 fold	10.1 nM	19.1 nM	0.6 fold		
TL1A-0280 (antibody, human IgG1, kappa, V domains shown, human IgG1 effector-function-minimized/kappa) VH: QVQLVQSGAEVKKPGASVKVSCKASGYDFSYYGISWVRQAPGQGLEWMGWISTYNTNTHYAPSLQGRVTMTTDTSTSTAYMELRSLRSDDTAVYYCARESYYGSGAFRGGMDVWGQGTTVTVSS VL: DIQMTQSPSSLSASVGDRVTITCRASQSVSSYLAWYQQKPGKAPKLLIYDASNRATGVPSRFSGSGSGTDFTLTISSLQPEDFATYYCQQRSNWPWTFGQGTKVEIKR	1.6 fold	8.2 nM			0.914 nM	1.1 fold
TL1A-0289 (antibody, human IgG1, kappa, V domains shown, human IgG1 effector-function-minimized/kappa) VH: QVQLVQSGAEVKKPGASVKVSCKASGYDFTYYGVSWVRQAPGQGLEWMGWISTYNTGTHYAPSLQGRVTMTTDTSTSTAYMELRSLRSDDTAVYYCARESYYGSGAHRGGMDVWGQGTTVTVSS VL: DIQMTQSPSSLSASVGDRVTITCRASQSVSSYLAWYQQKPGKAPKLLIYDASNRATGVPSRFSGSGSGTDFTLTISSLQPEDFATYYCQQRSNWPWTFGQGTKVEIKR	1.6 fold	7.9 nM			0.799 nM	1 fold
TL1A-0265 (antibody, human IgG1, kappa, V domains shown, human IgG1 effector-function-minimized/kappa) VH: QVQLVQSGAEVKKPGASVKVSCKASGYDYTYYGISWVRQAPGQGLEWMGWISTYNTVTHYAPSLQGRVTMTTDTSTSTAYMELRSLRSDDTAVYYCARESYYGSGAHRGGMDVWGQGTTVTVSS VL: DIQMTQSPSSLSASVGDRVTITCRASQSVSSYLAWYQQKPGKAPKLLIYDASNRATGVPSRFSGSGSGTDFTLTISSLQPEDFATYYCQQRSNWPWTFGQGTKVEIKR	1.7 fold	8.7 nM	45.1 nM	1.3 fold	1.01 nM	1.2 fold
TL1A-0287 (antibody, human IgG1, kappa, V domains shown, human IgG1 effector-function-minimized/kappa) VH: QVQLVQSGAEVKKPGASVKVSCKASGYDFTYYGVSWVRQAPGQGLEWMGWISTYNDNTHYAQKLQGRVTMTTDTSTSTAYMELRSLRSDDTAVYYCARESYYGSGAHRGGMDVWGQGTTVTVSS VL: DIQMTQSPSSLSASVGDRVTITCRASQSVSSYLAWYQQKPGKAPKLLIYDASNRATGVPSRFSGSGSGTDFTLTISSLQPEDFATYYCQQRSNWPWTFGQGTKVEIKR	2 fold	10.1 nM			0.993 nM	1.2 fold
TL1A-0288 (antibody, human IgG1, kappa, V domains shown, human IgG1 effector-function-minimized/kappa; 96 used) VH: QVQLVQSGAEVKKPGASVKVSCKASGYDFTYYGVSWVRQAPGQGLEWMGWISTYNTGTHYAPSLQGRVTMTTDTSTSTAYMELRSLRSDDTAVYYCARESYYGSGAFRGGMDVWGQGTTVTVSS VL: DIQMTQSPSSLSASVGDRVTITCRASQSVSSYLAWYQQKPGKAPKLLIYDASNRATGVPSRFSGSGSGTDFTLTISSLQPEDFATYYCQQRSNWPWTFGQGTKVEIKR	1.6 fold	8 nM	96 nM	2.8 fold		
TL1A-0285 (antibody, human IgG1, kappa, V domains shown, human IgG1 effector-function-minimized/kappa) VH: QVQLVQSGAEVKKPGASVKVSCKASGYDFTYYGVSWVRQAPGQGLEWMGWISTYNDNTHYAPSLQGRVTMTTDTSTSTAYMELRSLRSDDTAVYYCARESYYGSGAHRGGMDVWGQGTTVTVSS VL: DIQMTQSPSSLSASVGDRVTITCRASQSVSSYLAWYQQKPGKAPKLLIYDASNRATGVPSRFSGSGSGTDFTLTISSLQPEDFATYYCQQRSNWPWTFGQGTKVEIKR	1.7 fold	8.6 nM			0.955 nM	1.2 fold

Source: patent US20240059799A1 (Pfizer, published 2024)
